Laboratory results published in article PMC4141209 (FEBS Open Bio, 2014).

Target: the molecule itself
Assay: SEC

B1: TlLhpH (trans-3-hydroxy-L-proline dehydratase from Thermococcus litoralis DSM 5473) (enzyme, UniProt H3ZMH8 1-348, looked up)
chain: MFKKLENLEKWEPPKDWMVIKTLDTHTAGEPLRIILSGFPEIPGKTILEKRRYLMENLDHLRKALMWEPRGHADMYGAIITEPVSEEADFGVIFMHNEGYSTMCGHATIALGKVAVECGLVEAKEPITEIKMDSPAGLIKIYVKVRDGKVEKVYFHNVPSFVLFKDETINVPGIGEVKYDLAYGGAFYAFVNAEEIGLKCTPEYYRQLIDVGMKIKRAIMSEKEIRHPFEEDLSFLYGTIFIGEPEDENSHSRHVCIFADGEVDRSPTGTGVSARLAILYEKGEIDIGEEITIESIIGTKFTGKVVEETRYGLYRAIIPEVGGNAYIVAKNTFLIDPQDPLKYGFFLR
Question: Which “stoichiometry N” value does the source give for B1 here?
Answer: 2
